These results are taken from US20150093336A1 (VIB VZW, published 2015).

Assay [1] addresses T1, Mouse macrophage mannose receptor (MMR) expressed on tumor-associated macrophages of 3LL-R tumors (mouse, UniProt Q61830 20-1456).
T1 construct: Endogenous receptor on ex vivo isolated CD11b+ Ly6G- TAMs (flow cytometry) and in mouse organs (biodistribution); also called mouse MMR; mMMR
T1 sequence: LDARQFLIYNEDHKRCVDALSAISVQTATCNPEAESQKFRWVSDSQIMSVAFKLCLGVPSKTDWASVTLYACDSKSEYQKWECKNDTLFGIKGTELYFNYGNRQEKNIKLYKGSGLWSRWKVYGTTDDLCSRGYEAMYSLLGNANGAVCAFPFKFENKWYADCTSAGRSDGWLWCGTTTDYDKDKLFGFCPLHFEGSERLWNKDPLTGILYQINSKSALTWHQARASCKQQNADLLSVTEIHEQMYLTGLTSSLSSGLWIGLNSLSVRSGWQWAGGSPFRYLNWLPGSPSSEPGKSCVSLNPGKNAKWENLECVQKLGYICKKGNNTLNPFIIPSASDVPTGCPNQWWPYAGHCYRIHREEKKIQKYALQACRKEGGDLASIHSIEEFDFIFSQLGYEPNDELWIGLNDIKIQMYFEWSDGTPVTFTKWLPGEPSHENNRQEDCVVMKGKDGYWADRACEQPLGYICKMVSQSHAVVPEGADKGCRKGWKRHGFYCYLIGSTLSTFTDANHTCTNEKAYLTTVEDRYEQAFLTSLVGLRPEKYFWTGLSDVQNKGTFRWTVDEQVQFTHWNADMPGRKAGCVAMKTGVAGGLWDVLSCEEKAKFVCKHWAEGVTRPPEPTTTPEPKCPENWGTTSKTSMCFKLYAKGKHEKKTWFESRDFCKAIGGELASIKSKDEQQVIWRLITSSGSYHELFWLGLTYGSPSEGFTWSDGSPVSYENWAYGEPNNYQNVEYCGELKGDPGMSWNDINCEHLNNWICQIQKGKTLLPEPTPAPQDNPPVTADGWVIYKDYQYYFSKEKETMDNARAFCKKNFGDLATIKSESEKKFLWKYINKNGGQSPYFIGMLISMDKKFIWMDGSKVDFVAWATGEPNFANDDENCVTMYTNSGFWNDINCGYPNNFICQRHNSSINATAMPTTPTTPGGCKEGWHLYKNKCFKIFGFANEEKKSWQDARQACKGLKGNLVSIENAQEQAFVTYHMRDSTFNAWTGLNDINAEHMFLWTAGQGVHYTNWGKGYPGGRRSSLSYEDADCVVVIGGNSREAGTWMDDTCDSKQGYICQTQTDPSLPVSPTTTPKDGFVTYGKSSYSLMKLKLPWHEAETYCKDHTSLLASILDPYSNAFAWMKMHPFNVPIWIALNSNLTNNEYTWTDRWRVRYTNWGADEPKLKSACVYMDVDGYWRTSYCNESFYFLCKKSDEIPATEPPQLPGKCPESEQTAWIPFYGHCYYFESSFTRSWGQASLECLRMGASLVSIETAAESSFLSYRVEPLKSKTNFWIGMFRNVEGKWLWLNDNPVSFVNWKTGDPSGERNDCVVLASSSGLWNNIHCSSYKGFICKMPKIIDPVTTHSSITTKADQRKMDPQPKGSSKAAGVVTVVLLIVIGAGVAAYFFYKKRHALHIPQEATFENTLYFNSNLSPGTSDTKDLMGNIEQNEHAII
Put plainly: flow cytometry on CD11b+ Ly6G- TAMs of 3LL-R tumors gated on MHCII, HA-tagged Nb detected with Alexa Fluor 488 anti-HA. The method, then:
FIG. 6: MMR-specific Nbs bind to mouse MMR expressed on ex vivo isolated macrophages. 3LL-R tumors were induced by injecting 3×10⁶ cancer cells subcutaneously in C57Bl/6 mice. After 15 days of tumor growth, the tumors were isolated and single cell suspensions were prepared to be analyzed by flow cytometry. The CD11b+Ly6G tumor-associated macrophages (TAM) were further gated on MHCII expression. The histograms depict MMR expression as defined by Nb binding on MHCII^low and MHCII^high TAMs. Shaded histograms depict binding of the negative control Nb BCII10.
For examining specific binding of the anti-MMR sdAbs to mouse MMR, 3LL-R tumors were induced by injecting 3 E6 cancer cells subcutaneously in C57Bl/6 mice. After 15 days of tumor growth, the tumors were isolated, chopped and incubated for 25 minutes (37° C.) with 10 U/ml Collagenase type I, 400 U/ml Collagenase type IV, and 30 U/ml DNAseI (Worthington). Density gradients (Axis-Shield) were used to remove tissue debris and dead cells. sdAbs were added at 10 μg/ml to 1 E6 cells per tube. […] Binding profiles of anti-MMR sdAbs were recorded.

Assay [2] concerns the target T2, Recombinant human MMR (R&D systems) (human, UniProt P22897 19-1383).
T2 construct: Antigen of the PE-ELISA and the SPR; also called hMMR; recombinant hMMR
T2 sequence: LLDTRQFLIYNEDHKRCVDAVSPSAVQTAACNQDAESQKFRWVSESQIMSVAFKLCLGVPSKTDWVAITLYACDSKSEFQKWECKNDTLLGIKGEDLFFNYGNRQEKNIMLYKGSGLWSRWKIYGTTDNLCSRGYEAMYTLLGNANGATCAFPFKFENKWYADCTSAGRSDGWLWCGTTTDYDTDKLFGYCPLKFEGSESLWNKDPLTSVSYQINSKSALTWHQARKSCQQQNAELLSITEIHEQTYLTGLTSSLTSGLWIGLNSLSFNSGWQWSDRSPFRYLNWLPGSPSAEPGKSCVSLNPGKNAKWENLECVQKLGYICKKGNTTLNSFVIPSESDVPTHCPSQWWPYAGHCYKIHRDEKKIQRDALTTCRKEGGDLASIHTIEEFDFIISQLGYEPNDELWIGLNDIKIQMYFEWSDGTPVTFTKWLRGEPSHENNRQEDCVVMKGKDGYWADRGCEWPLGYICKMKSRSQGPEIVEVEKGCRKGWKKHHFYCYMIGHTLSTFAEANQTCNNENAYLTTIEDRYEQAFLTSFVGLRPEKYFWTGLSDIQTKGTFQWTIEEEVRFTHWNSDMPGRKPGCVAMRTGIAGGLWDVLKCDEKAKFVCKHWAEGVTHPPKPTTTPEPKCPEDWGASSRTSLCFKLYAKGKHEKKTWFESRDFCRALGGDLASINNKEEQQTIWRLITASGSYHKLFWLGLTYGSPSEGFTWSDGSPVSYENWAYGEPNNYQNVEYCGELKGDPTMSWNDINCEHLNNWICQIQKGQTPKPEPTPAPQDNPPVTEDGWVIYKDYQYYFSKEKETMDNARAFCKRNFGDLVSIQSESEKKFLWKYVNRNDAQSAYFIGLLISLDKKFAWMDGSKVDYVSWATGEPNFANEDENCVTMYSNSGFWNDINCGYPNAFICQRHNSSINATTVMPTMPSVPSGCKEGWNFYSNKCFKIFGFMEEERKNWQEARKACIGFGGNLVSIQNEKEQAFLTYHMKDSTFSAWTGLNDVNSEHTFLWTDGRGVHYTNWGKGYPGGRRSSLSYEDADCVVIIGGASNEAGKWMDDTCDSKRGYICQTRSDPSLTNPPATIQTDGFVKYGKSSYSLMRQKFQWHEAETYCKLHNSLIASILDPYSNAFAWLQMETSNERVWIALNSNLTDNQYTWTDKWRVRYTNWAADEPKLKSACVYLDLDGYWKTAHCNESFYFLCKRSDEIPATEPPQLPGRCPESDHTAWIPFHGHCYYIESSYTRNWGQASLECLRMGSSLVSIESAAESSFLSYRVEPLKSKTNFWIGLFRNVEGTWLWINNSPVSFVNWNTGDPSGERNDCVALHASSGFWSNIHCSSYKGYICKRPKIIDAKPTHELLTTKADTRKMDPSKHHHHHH
Put plainly: PE-ELISA, periplasmic extract on coated human MMR, anti-HA detection.

B1: anti-mouse MMR sdAb clone 1 (VHH)
VHH: QVQLQESGGGLVQPGGSLRLSCAASGNIFSINAIGWYRQAPGKQRELVATITLSGSTNYADSVKGRFSISRDNAKNTVYLQMNSLKPEDTAVYYCNANTYSDSDVYGYWGQGTQVTVSS
notes: also called anti-mMMR Nb clone 1; anti-mouse MMR clone 1
Turning to B1, the binding result in assay [1] was “binds”.

B2: NbhMMRm4.83 (VHH)
VHH: QVQLQESGGGLVQPGGSLRLSCAASGPGFKLDYYAIAWFRQAPGKEREGVSCIGGSGSGLTTYVENSVKDRFTISRDNAQNTVYLHMNSLKPEDTGIYYCAADTYYYCSKRVWRNDYGSWGQGTQVTVSS
notes: Only tested as periplasmic extract in PE-ELISA; clone carries C-terminal HA and 6xHis tag
Consider B2, for which, in assay [2], the binding result was “binds”.
